One may read the IC50 as the midpoint of a concentration-inhibition curve. High values mean lower potency, low ones higher potency. In general, EC50 refers to the midpoint of the concentration-response curve. Read a high EC50 as lower potency in that assay.

We go through 5 molecules from US20210388065A1 (published 2021).

Experiment [1] deals with T1, SARS-CoV-2 Spike protein (Receptor Binding Domain, RBD) (UniProt P0DTC2 331-524). The experiment can be described thus: ELISA.
Experiment [2] concerns the target T1, SARS-CoV-2 Spike protein (Receptor …). Briefly: ELISA. The source holds these as a separate data set.

B1: 105-9 antibody (antibody, V domains shown)
VH: EVQLVESGGGLVKPGRSLRLSCTASGFTFGDYAMSWFRQAPGKGLEWVGFIRSKAYGWTTQYAASVKGRFTISRDDSKSIAYLQMKSLNSEDTAVYYCTRDPWGTTYFDYWGQGTLVTVSS
VL: EIVMTQSPATLSVSPGERATLSCRASQSVSSNLAWYQQKPGQGPRLLIYGASTRATGVPARFSGSGSGTDFTLTISSLQSEDFAIYYCQHYNNWFTFGQGTKVEIK
In turn, B1 displayed an IC50 in experiment [1] of 25.2 nM. For the same molecule, in experiment [2], the EC50 stood at 15.1 nM.

B2: 105-38 antibody (antibody, V domains shown)
VH: EVQLVESGGGLVQPGGSLRLSCAASGFTFSSYWMHWVRQAPGKGLVWVSRINSDGSSTSYADSVKGRFTISRDNAKNTLYLQMNSLRAEDTAVYYCARVQWLRGEFDYWGQGTLVTVSS
VL: DVVLTQPHSVSESPGKTVTISCTGSSGSIASNYVQWYQQRPGSAPTTVIYEDNQRPSGVPDRFSGSIDSSSNSASLTISGLKTEDEADYYCQSYDSSTDVVFGGGTELTVL
As to B2, the IC50 in experiment [1] amounted to 0.598 nM. In addition, the EC50 in experiment [2] came to 0.425 nM.

B3: 105-43 antibody (antibody, V domains shown)
VH: EVQLVESGGGLVQPGGSLRLSCAASGFTFSSYDMHWVRQATGKGLEWISAIGTTGDIYYADSVKGRFTISRENAENSLYLQMNSLRAGDTAVYYCARYRGAFDVWGQGTMVTVSS
VL: EIVMTQSPVTLSLSPGERATLSCRASQSVGTYLAWYQQKPGQAPRLLIYDASNRATRIPARFSGSGSGTDFTLTISSLEPEDFAVYYCQQGSNWPLTFGGGTKVEIK
As for B3, the IC50 in experiment [1] was determined as 59 nM. A half-maximal effect in experiment [2] (EC50) was put at 12.1 nM.

B4: 414-3-2 antibody (antibody, V domains shown)
VH: QVQLVESGGGVVQPGRSLRLSCAASGFTFSSYAMHWVRQAPGKGLEWVALISYDGSNKYYADSVKGRFTISRDNSKNTLYLQMNSLRAEDTAVYYCARDGGGWFDPWGQGTLVTVSS
VL: QTVVTQPASVSGSPGQSITISCTGTSSDVGGYNYVSWYQQHPGKAPKLMIYDVSKRPSGVSNRFSGSKSGNTASLTISGLQAEDEADYYCSSYTSSSPWVFGGGTELTVL
With B4, the EC50 in experiment [2] was 6.66 nM.

B5: 414-1 antibody (antibody, V domains shown)
VH: QVQLVQSGAEVKKPGASVKVSCKASGYTFTSYYMHWVRQAPGQGLEWMGIINPSGGSTSYAQKFQGRVTMTRDTSTSTVYMELSSLRSEDTAVYYCARGALGCSSTSCYPNNFDYWGQGTLVTVSS
VL: not shown
For the molecule B5, the IC50 in experiment [1] was found to be 6.68 nM. The EC50 in experiment [2] was 1.26 nM.
